Measured values from US20030113711A1, “Protein kinase peptide substrate determination using peptide libraries” (priority 2001, published 2003).
Where a SMILES comes first, the peptide text is derived from it. The star is where a group is joined. Biotin = O=C1N[C@H]2[C@H](CS[C@H]2CCCCC(=O)*)N1; Ahx = NCCCCCC(=O)O

Tests used:
EGFR [1] = molecular target: T1, EGFR (Homo sapiens, UniProt P00533); assay: Kinetic evaluation of peptide substrates, varying peptide at fixed ATP (phosphocellulose filter, [γ-33P]ATP); type: biochemical; conditions: ATP concentration >10 × Km (200 μM ATP); for Kcat: varying peptide, 10 minutes at 23° C.; for Km: Km for peptide
Procedure: Peptide sequences identified as preferred substrates for ErbB-2 using the methods described in Laboratory Example 3 were synthesized. The kcat and Km values for each peptide were determined as follows, using the kinases ErbB-2, ErbB-4, and EGFR.
Reactions were performed in 96-well polystyrene round bottom plates in a final volume of 45 μL. Reaction mixtures contained 50 mM MOPS, pH 7.5, 10 mM MnCl2, 1 mM dithiothreitol (DTT), 200 μM ATP, 1.0 μCi [γ-^33P] ATP, and varying concentrations of peptide. The reaction was initiated by adding the purified kinase of interest and halted after 10 minutes at 23° C. (room temperature) by adding 45 μL of 0.5% phosphoric acid in water. A 75 μL aliquot of the halted reaction mixture was then transferred to MAPH phosphocellulose filter plates (Millipore, Bedford, Mass.). The plates were filtered three times with 0.2 mL of 0.5 percent phosphoric acid. Scintillation cocktail (50 μL) was added to each well, and the plate was analyzed by counting in a Packard TOPCOUNT® scintillation counter (Packard Instrument Co., Meriden, Conn.). In these assays, the concentration of ATP was greater than ten-fold higher than the Km for ATP, which permitted the kinetic data to be treated as a pseudo-first-order reaction with varying peptide concentration. All experiments were performed in quadruplicate and the average value for each data point was analyzed. The Km and Vmax values were calculated by fitting the data to the Henri-Michaelis-Menten equation by non-linear regression using SIGMAPLOT® (SPSS Science, Chicago, Ill.). kcat values were calculated using the Vmax value, and are based on the protein concentration of the enzyme preparation and an estimate of purity determined from an evaluation of a Coomassie Blue stained SDS-polyacrylamide gel.

EGFR [2] = molecular target: T1, EGFR; assay: Two-substrate kinetic comparison with known substrate, peptide and ATP varied simultaneously; type: biochemical; conditions: peptide and ATP concentrations varied simultaneously, two-substrate fit
Procedure: In a separate experiment, the kinetic parameters of both peptide number 1 shown in Table 2, and a peptide with the sequence Biotin-Ahx-G-G-M-E-D-I-Y-F-E-F-M-G-G-K-K-K-amide (SEQ ID NO: 17), which has been previously identified as an ErbB-2 substrate (Jan et. al., (2000), Biochemistry 39: 9786-803), were determined and compared. In this experiment, both peptide and ATP concentrations were varied, and the resulting data was simultaneously fit to an equation representing a two-substrate enzyme reaction using SIGMAPLOT®. Data was collected using the kinases ErbB-2, ErbB-4, and EGFR. The results of this experiment are shown in Table 3 and indicate that for all three kinases tested, peptide number 1 shown in Table 2 is kinetically at least equivalent (based on kcat/Km values) to the known peptide substrate identified by Jan et al.

[3] = molecular target: T2, Biotin-Ahx-(SEQ ID NO: 12)-amide
T2 chain: RAHEEIYHFFFAKKK

[4] = molecular target: T3, Biotin-Ahx-(SEQ ID NO: 13)-amide
T3 chain: RAHHEIYHFFFAKKK

[5] = molecular target: T4, Biotin-Ahx-(SEQ ID NO: 14)-amide
T4 chain: RAHHEEYHFFFAKKK

[6] = molecular target: T5, Biotin-Ahx-(SEQ ID NO: 15)-amide
T5 chain: RAHEEEYHFIFAKKK

[7] = molecular target: T6, Biotin-Ahx-(SEQ ID NO: 16)-amide
T6 chain: RAHEEEYHFFFAKKK

[8] = molecular target: T7, Biotin-Ahx-G-G-M-E-D-I-Y-F-E-F-M-G-G-K-K-K-amide (SEQ ID NO: 17)
T7 chain: GGMEDIYFEFMGGKKK

CC[C@H](C)[C@H](NC(=O)[C@H](Cc1ccccc1)NC(=O)[C@H](Cc1c[nH]cn1)NC(=O)[C@H](Cc1ccc(O)cc1)NC(=O)[C@H](CCC(=O)O)NC(=O)[C@H](CCC(=O)O)NC(=O)[C@H](CCC(=O)O)NC(=O)[C@H](Cc1c[nH]cn1)NC(=O)[C@H](C)NC(=O)[C@H](CCCNC(=N)N)NC(=O)CCCCCNC(=O)CCCC[C@@H]1SC[C@@H]2NC(=O)N[C@@H]21)C(=O)N[C@@H](Cc1ccccc1)C(=O)N[C@@H](C)C(=O)N[C@@H](CCCCN)C(=O)N[C@@H](CCCCN)C(=O)N[C@@H](CCCCN)C(N)=O [Peptide 4, Biotin-Ahx-(SEQ ID NO: 15)-amide] ({Biotin-Ahx}-RAHEEEYHFIFAKKK-NH2)
Kcat (EGFR [1]): 0.0567 s⁻¹
Km (EGFR [1]): 10 µM

CC[C@H](C)[C@H](NC(=O)[C@H](CCC(=O)O)NC(=O)[C@H](Cc1c[nH]cn1)NC(=O)[C@H](Cc1c[nH]cn1)NC(=O)[C@H](C)NC(=O)[C@H](CCCNC(=N)N)NC(=O)CCCCCNC(=O)CCCC[C@@H]1SC[C@@H]2NC(=O)N[C@@H]21)C(=O)N[C@@H](Cc1ccc(O)cc1)C(=O)N[C@@H](Cc1c[nH]cn1)C(=O)N[C@@H](Cc1ccccc1)C(=O)N[C@@H](Cc1ccccc1)C(=O)N[C@@H](Cc1ccccc1)C(=O)N[C@@H](C)C(=O)N[C@@H](CCCCN)C(=O)N[C@@H](CCCCN)C(=O)N[C@@H](CCCCN)C(N)=O [Peptide 2, Biotin-Ahx-(SEQ ID NO: 13)-amide] ({Biotin-Ahx}-RAHHEIYHFFFAKKK-NH2)
Kcat (EGFR [1]): 0.252 s⁻¹
Km (EGFR [1]): 105 µM

CC[C@H](C)[C@H](NC(=O)[C@H](CC(=O)O)NC(=O)[C@H](CCC(=O)O)NC(=O)[C@H](CCSC)NC(=O)CNC(=O)CNC(=O)CCCCCNC(=O)CCCC[C@@H]1SC[C@@H]2NC(=O)N[C@@H]21)C(=O)N[C@@H](Cc1ccc(O)cc1)C(=O)N[C@@H](Cc1ccccc1)C(=O)N[C@@H](CCC(=O)O)C(=O)N[C@@H](Cc1ccccc1)C(=O)N[C@@H](CCSC)C(=O)NCC(=O)NCC(=O)N[C@@H](CCCCN)C(=O)N[C@@H](CCCCN)C(=O)N[C@@H](CCCCN)C(N)=O [Biotin-Ahx-(SEQ ID NO: 17)-amide, Biotin-Ahx-G-G-M-E-D-I-Y-F-E-F-M-G-G-K-K-K-amide, reference compound] ({Biotin-Ahx}-GGMEDIYFEFMGGKKK-NH2)
Kcat (EGFR [2]): 0.218 s⁻¹
Km (EGFR [2]): 899 µM

C[C@H](NC(=O)[C@H](CCCNC(=N)N)NC(=O)CCCCCNC(=O)CCCC[C@@H]1SC[C@@H]2NC(=O)N[C@@H]21)C(=O)N[C@@H](Cc1c[nH]cn1)C(=O)N[C@@H](CCC(=O)O)C(=O)N[C@@H](CCC(=O)O)C(=O)N[C@@H](CCC(=O)O)C(=O)N[C@@H](Cc1ccc(O)cc1)C(=O)N[C@@H](Cc1c[nH]cn1)C(=O)N[C@@H](Cc1ccccc1)C(=O)N[C@@H](Cc1ccccc1)C(=O)N[C@@H](Cc1ccccc1)C(=O)N[C@@H](C)C(=O)N[C@@H](CCCCN)C(=O)N[C@@H](CCCCN)C(=O)N[C@@H](CCCCN)C(N)=O [Peptide 5, Biotin-Ahx-(SEQ ID NO: 16)-amide] ({Biotin-Ahx}-RAHEEEYHFFFAKKK-NH2)
Kcat (EGFR [1]): 0.04 s⁻¹
Km (EGFR [1]): 7.5 µM

C[C@H](NC(=O)[C@H](CCCNC(=N)N)NC(=O)CCCCCNC(=O)CCCC[C@@H]1SC[C@@H]2NC(=O)N[C@@H]21)C(=O)N[C@@H](Cc1c[nH]cn1)C(=O)N[C@@H](Cc1c[nH]cn1)C(=O)N[C@@H](CCC(=O)O)C(=O)N[C@@H](CCC(=O)O)C(=O)N[C@@H](Cc1ccc(O)cc1)C(=O)N[C@@H](Cc1c[nH]cn1)C(=O)N[C@@H](Cc1ccccc1)C(=O)N[C@@H](Cc1ccccc1)C(=O)N[C@@H](Cc1ccccc1)C(=O)N[C@@H](C)C(=O)N[C@@H](CCCCN)C(=O)N[C@@H](CCCCN)C(=O)N[C@@H](CCCCN)C(N)=O [Peptide 3, Biotin-Ahx-(SEQ ID NO: 14)-amide] ({Biotin-Ahx}-RAHHEEYHFFFAKKK-NH2)
Kcat (EGFR [1]): 0.108 s⁻¹
Km (EGFR [1]): 12.2 µM

CC[C@H](C)[C@H](NC(=O)[C@H](CCC(=O)O)NC(=O)[C@H](CCC(=O)O)NC(=O)[C@H](Cc1c[nH]cn1)NC(=O)[C@H](C)NC(=O)[C@H](CCCNC(=N)N)NC(=O)CCCCCNC(=O)CCCC[C@@H]1SC[C@@H]2NC(=O)N[C@@H]21)C(=O)N[C@@H](Cc1ccc(O)cc1)C(=O)N[C@@H](Cc1c[nH]cn1)C(=O)N[C@@H](Cc1ccccc1)C(=O)N[C@@H](Cc1ccccc1)C(=O)N[C@@H](Cc1ccccc1)C(=O)N[C@@H](C)C(=O)N[C@@H](CCCCN)C(=O)N[C@@H](CCCCN)C(=O)N[C@@H](CCCCN)C(N)=O [Peptide 1, Biotin-Ahx-(SEQ ID NO: 12)-amide] ({Biotin-Ahx}-RAHEEIYHFFFAKKK-NH2)
Kcat (EGFR [1]): 0.102 s⁻¹
Km (EGFR [1]): 8 µM
Kcat (EGFR [2]): 0.0567 s⁻¹
Km (EGFR [2]): 128 µM

B1: ErbB-4 (protein)
chain: RRKSIKKKRALRRFLETELVEPLTPSGTAPNQAQLRILKETELKRVKVLGSGAFGTVYKGIWVPEGETVKIPVAIKILNETTGPKANVEFMDEALIMASMDHPHLVRLLGVCLSPTIQLVTQLMPHGCLLEYVHEHKDNIGSQLLLNWCVQIAKGMMYLEERRLVHRDLAARNVLVKSPNHVKITDFGLARLLEGDEKEYNADGGKMPIKWMALECIHYRKFTHQSDVWSYGVTIWELMTFGGKPYDGIPTREIPDLLEKGERLPQPPICTIDVYMVMVKCWMIDADSRPKFKELAAEFSRMARDPQRYLVIQGDDRMKLPSPNDSKFFQNLLDEEDLEDMMDAEEYLVPQAFNIPPPIYTSRARIDSNRSEIGHSPPPAYTPMSGNQFVYRDGGFAAEQGVSVPYRAPTSTIPEAPVAQGATAEIFDDSCCNGTLRKPVAPHVQEDSSTQRYSADPTVFAPERSPRGELDEEGYMTPMRDKPKQEYLNPVEENPFVSRRKNGDLQALDNPEYHNASNGPPKAEDEYVNEPLYLNTFANTLGKAEYLKNNILSMPEKAKKAFDNPDYWNHSLPPRSTLQHPDYLQEYSTKYFYKQNGRIRPIVAENPEYLSEFSLKPGTVLPPPPYRHRNTVV
Kcat [3]: 0.0683 s⁻¹
kcat [3]: 0.105 s⁻¹
kinetic comparison with the known substrate (SEQ ID NO: 17), based on kcat/Km [3]: for all three kinases tested, peptide number 1 shown in Table 2 is kinetically at least equivalent (based on kcat/Km values) to the known peptide substrate identified by Jan et al.
Kcat [4]: 0.0767 s⁻¹
Km [4]: 37.6 µM
kcat/Km [4]: 2000 M⁻¹ s⁻¹
Kcat [5]: 0.065 s⁻¹
Km [5]: 13.6 µM
kcat/Km [5]: 4670 M⁻¹ s⁻¹
Kcat [6]: 0.0217 s⁻¹
Km [6]: 12.5 µM
kcat/Km [6]: 1670 M⁻¹ s⁻¹
Kcat [7]: 0.015 s⁻¹
Km [7]: 6 µM
kcat/Km [7]: 2500 M⁻¹ s⁻¹
Km [8]: 144 µM
kcat [8]: 0.0767 s⁻¹
kcat/Km [8]: 533 M⁻¹ s⁻¹
